According to patent US20260060994A1, “GLYCOSYLATED COMPOSITIONS AND METHODS OF USE” (Cy Biopharma AG, priority 2023, published 2026):

Legend:
Type in all cases: biochemical
[1] = Glycosylation of 4-HO-MET by GLY enzymes (UDP-glucose), LC-UV/MS; conditions: 0.5 mM 4-OH-MET, 1.25 mM UDP-glucose, 25% (v/v) GLY enzyme, 24 h at 30° C.; estimate from UV peak areas
Experimental: 4-HO-MET was dissolved in 100% (v/v) DMSO to a concentration of 10 mM. The solution was stored at −20° C. prior to use.
FastAP phosphatase (1 U/uL) from ThermoFisher Scientific (catalog no. EF0651).
GLY enzyme suspensions contain 10 mM Tris-HCl at pH7.4, 250 mM imidazole and 50% (v/v) glycerol.
(§1) The assay conditions were: • 100 mM Tris-HCl, pH 7.4 • 5 mM MgCl2 • 1 mM KCl • 1.25 mM UDP-glucose • 0.5 mM 4-OH-MET • 5% (v/v) DMSO • 0.1 U/uL Fast AP phosphatase • 25% (v/v) GLY enzyme
(§2) Incubation was 24 house at 30° C. Reactions were terminated adding 3 volumes of 75% (v/v) ethanol.
(§3) LC separation was performed using an Agligen 1290 Infinity II UHPLC equipped with a Phenomenex Kinetex XB-C18 column (1.7 um, 100 angstroms, 100×2.1 mm) and 4-HO-MET was detected by absorbance at 210 nm and 268 nm with an Agilent 1260 Infinity II DAD.
(§4) 0.1% Formic acid in water (A) and 0.1% Formic acid in acetonitrile (B) were used as the mobile phases for the elution gradient, with a flow rate of 0.4 ml/min. Retention time for 4-HO-MET using this type of instrument under these condition was 2.6 min. The system was coupled to an Ultivo Triple Quadrupole MS. To verify the presence of possible glycoside products, as SIM (Selected Ion Monitoring) method was used on the MS to analyse for the m/z 381 (theoretical mass to chart ratio of 4-HO-MET-glucoside) and m/z 219 (theoretical mass to charge ratio of 4-HO-MET).
As standard, 4-HO-MET solutions at a concentrations of 500, 250, 125, 62.5, and 31.25 uM were prepared from the 10 mM stock and used for caliboration.
A representative example of the chromatograms obtained with a wavelength of 268 nm for the standard solutions resuspended in the reaction buffer, and the corresponding MS-SIM signal, is shown in FIG. 16. The peak corresponding to 4-HO-MET is indicated.
When analyzing the GLY reactions, 30 of them gave an additional peak with retention time 2.2 min (i.e. in the expected region for a 4-HO-MET glucoside) and molecular mass compatible with the expected glucoside product, together with a corresponding decrease in substrate concentration, compared to the no-enzyme controls.
The method was repeated using various GLY enzymes to produce 4-HO-MET glucosides.
(§5) The enzymes giving the additional peak putatively corresponding to the 4-HO-MET-β-D-glucoside are listed below. […] A correct quantification of the product is not possible without a standard for the specific molecule. However, based on the assumption that the ratio area-to-concentration in the UV chromatograms will be similar to 4-HO-MET, estimates of the relative abundance for the additional peak are also given, expressed as percentage of converted 4-HO-MET. GLY enzymes hits are ranked according to their estimated conversion efficiency.

[2] = Glycosylation of 4-OH-EPT by GLY enzymes (UDP-glucose), LC-UV/MS; conditions: conditions of Examples 1 and 2 repeated for 4-OH-EPT; estimate from UV peak areas
Experimental: as §1, §2, §3, §4, §5
The experiments described in Examples 1 and 2 above were repeated for 4-OH-EPT.
Below is the corresponding data for 4-OH-EPT.

[3] = Glycosylation of 4-OH-MiPT by GLY enzymes (UDP-glucose), LC-UV/MS; conditions: conditions of Examples 1 and 2 repeated for 4-OH-MiPT; estimate from UV peak areas
Experimental: as §1, §2, §3, §4, §5
(§6) The experiments described in Examples 1 and 2 above were repeated for 4-OH-MiPT, 4-HO-DMT and 5-HO-DMT
Below is the corresponding data for 4-OH-MiPT.

[4] = Glycosylation of 4-OH-DMT by GLY enzymes (UDP-glucose), LC-UV/MS; conditions: conditions of Examples 1 and 2 repeated for 4-HO-DMT; estimate from UV peak areas
Experimental: as §1, §2, §3, §4, §5, §6
(§7) Below is the corresponding data for 4-OH-DMT and 5-HO-DMT.

[5] = Glycosylation of 5-HO-DMT by GLY enzymes (UDP-glucose), LC-UV/MS; conditions: conditions of Examples 1 and 2 repeated for 5-HO-DMT
Experimental: as §1, §2, §3, §4, §5, §6, §7

B1: GLY87: glycosyltransferase (UGT), SEQ ID NO: 10 (protein)
chain: MGKQEDAELVIIPFPFSGHILATIELAKRLISQDNPRIHTITILYWGLPFIPQADTIAFLRSLVKNEPRIRLVTLPEVQDPPPMELFVEFAESYILEYVKKMVPIIREALSTLLSSRDESGSVRVAGLVLDFFCVPMIDVGNEFNLPSYIFLTCSAGFLGMMKYLPERHREIKSEFNRSFNEELNLIPGYVNSVPTKVLPSGLFMKETYEPWVELAERFPEAKGILVNSYTALEPNGFKYFDRCPDNYPTIYPIGPILNLENKKDDAKTDEIMRWLNEQPESSVVFLCFGSMGSFNEKQVKEIAVAIERSGHRFLWSLRRPTPKEKIEFPKEYENLEEVLPEGFLKRTSSIGKVIGWAPQMAVLSHPSVGGFVSHCGWNSTLESMWCGVPMAAWPLYAEQTLNAFLLVVELGLAAEIRMDYRTDTKAGYDGGMEVTVEEIEDGIRKLMSDGEIRNKVKDVKEKSRAAVVEGGSSYASIGKFIEHVSNVTI
4-OH-MET GLY % (percentage of converted 4-HO-MET) [1]: 95.2%
4-OH-EPT GLY % (percentage of converted 4-OH-EPT) [2]: 68.9%
4-OH-MiPT GLY % (percentage of converted 4-OH-MiPT) [3]: 76.4%
4-OH-DMT GLY % [4]: 85.3%
5-OH-DMT GLY % [5]: 3%
